Test results published in patent publication US20140170149A1.

How the values were obtained:
[1] = biological target: hu-HER2-ch(III) (human; chicken (Gallus gallus)) (UniProt P04626); assay: flow cytometry on CHO-S cells transiently transfected with hu-HER2-ch(III), PE-goat anti-human IgG, MFI (Example 24)
[2] = biological target: hu-HER2-ch(I) (chicken (Gallus gallus); human) (UniProt P04626); assay: flow cytometry on CHO-S cells transiently transfected with hu-HER2-ch(I), PE-goat anti-human IgG, MFI (Example 24)
[3] = biological target: hu-HER2-ch(IV) (human; chicken (Gallus gallus)) (UniProt P04626); assay: flow cytometry on CHO-S cells transiently transfected with hu-HER2-ch(IV), PE-goat anti-human IgG, MFI (Example 24)

B1: HER2 HuMab 153 (antibody, V domains shown)
VH: QVQLVESGGGVVQPGRSLRLSCAASGFTFSDYVIHWVRQAPGKGLEWVTVISYDGSNKYYADSVKGRFTISRDNSKNTLYLQMNSLSAEDTAMYYCARGGITGTTGVFDYWGQGTLVTVSS
VL: DIQMTQSPSSLSASVGDRVTITCRASQGISSWLAWYQQKPEKAPKSLIYDASSLQSGVPSRFSGSGYGTDFSLTISSLQPEDFAIYYCQQYKSYPITFGQGTRLEIK
In the case of B1, the EC50 (read off the curve) [1] is reported as 0.03 µg/mL, the EC50 (read off the curve) [2] is reported as 0.05 µg/mL and the EC50 (read off the curve) [3] is reported as 0.04 µg/mL.
